Experimental data taken from patent US20220362278A1, “RENAL TARGETING-TYPE DRUG DELIVERY CARRIER HAVING EXCELLENT BIODEGRABILITY” (priority 2019, published 2022).

Experiments:
[1] = Mean particle size and zeta potential by Zetasizer Nano ZS; format: physicochemical; settings: for physicochemical properties (particle size and zeta potential) of the labeled compound versus the unlabeled compound: stated in words
From the text: 1.1 equivalents of Boc-Ser(t-Bu)-OH (manufactured by Watanabe Chemical Industries, Ltd.), 1.1 equivalents of 1-[bis(dimethylamino)methylene]-1H-benzotriazolium 3-oxide hexafluorophosphate (HBTU) (manufactured by Merck Millipore), 1.1 equivalents of anhydrous 1-hydroxy-1H-benzotriazole (HOBt) (manufactured by Watanabe Chemical Industries, Ltd.) and 2.2 equivalents of N,N-diisopropyl ethylamine (DIPEA), each to the total number of amino groups of poly-L-lysine hydrobromide (manufactured by Sigma-Aldrich Co. LLC., P6516-100M, number average molecular weight: 4000-15000) were mixed in DMF/DMSO (1:1). Then, the reaction mixture was reacted by stirring at room temperature until the ninhydrin test yielded negative results on TLC analysis. After completion of coupling, this solution was purified by precipitation with diethylether three times. The precipitates thereof were dissolved in a trifluoroacetic acid (TFA) cocktail (95% TFA, 2.5% […] (TIS) and 2.5% purified water) to deprotect the Boc group and t-Bu group (protecting group of oxygen atom of serine). Then, the reaction mixture was incubated at room temperature for 90 min. After completion of deprotection, the reaction mixture was purified by precipitation with diethylether three times.

B16-BL6/Luc cells = assay: Renal cell carcinoma proliferation suppressive activity in renal cell carcinoma model mouse; format: in vivo, C57BL/6J mouse
Experimental: The renal cell carcinoma model was produced by injecting firefly luciferase gene-labeled B16-BL6 cells (B16-BL6/Luc cells, 2.5×10^5 cells) together with Matigel (registered trade mark) Matrix in the renal cortex of the right kidney of C57BL/6J mouse. […] 14 days after tumor inoculation, 2.5 mg of D-Luciferin was intraperitoneally injected into the mouse under anesthesia by intraperitoneal injection of triple anesthesia (medetomidine (0.3 mg/kg), midazolam (2 mg/kg), butorphanol (2.5 mg/kg)), and imaged using LAS-4000 IVIS Imaging System (FUJIFILM, Japan). Then, the mouse was euthanized, the kidneys were isolated, and the luciferase activity in the tissue was measured with a luminometer (Lumat LB9507, EG&G Berthold, Bad Wild-bad, Germany). From the obtained luciferase activity, the number of cancer cells in the kidney was calculated using a regression line. In addition, the body weight of the mouse was measured immediately after the tumor inoculation administration and 14 days after the tumor inoculation.

[2] = Releasability of serine and biodegradability: PD-10 fractionation of kidney homogenate radioactivity; settings: 3 hr after intravenous administration
Experimental: The kidney after blood removal was immediately ice-cooled, purified water (4 mL) was added and homogenized. A saturated potassium chloride solution (1 mL) was added to the prepared kidney homogenate, and the mixture was allowed to stand at 4° C. overnight and then centrifuged. The centrifuged supernatant (1 mL) was developed on a PD-10 column with 0.1 M acetate buffer (pH 6.0), and the radioactivity of the fraction was measured.

[3] = Acute kidney toxicity after administration; format: in vivo, ddY mouse; settings: positive control, 8 mg/kg s.c., bred for 2 days
Experimental: The severity of renal damage was evaluated from the plasma creatinine level and plasma urea nitrogen concentration 6 days after the start of administration. The plasma creatinine concentration was measured using a commercially available measurement kit (LabAssay, manufactured by Wako Pure Chemical Industries, Ltd.). Plasma urea nitrogen concentration was measured using a commercially available measurement kit (DIUR-100, manufactured by BioAssySystem). Mercury chloride was subcutaneously injected at 8 mg/kg, the group bred for 2 days was used as a positive control, and the results were compared.

^111In-labeled serine-modified poly-L-lysine [^111In-labeled compound (Ia)]
physicochemical properties (particle size and zeta potential) of the labeled compound versus the unlabeled compound [1]: the same as those of compound (Ia)

^90Y-labeled serine-modified poly-L-lysine [^90Y-labeled compound (Ia)]
luciferase luminescence derived from cancer cells (B16-BL6/Luc cells; 14 days after tumor inoculation, vs PBS, FIG. 9(B)): remarkably suppressed as compared with that of mouse administered with PBS | growth of the number of cancer cells in the kidney (B16-BL6/Luc cells; i.v. immediately after tumor inoculation, 14 days after inoculation, vs PBS, FIG. 9(A)): remarkably suppressed | body weight of mouse (B16-BL6/Luc cells; immediately after and 14 days after tumor inoculation, FIG. 9(C)): did not affect

^111In-labeled serine-modified PAMAM(G3)
physicochemical properties (particle size and zeta potential) of the labeled compound versus the unlabeled compound [1]: also the same

FITC-labeled serine-modified poly-L-lysine [FITC-labeled compound (Ia)]
physicochemical properties (particle size and zeta potential) of the labeled compound versus the unlabeled compound [1]: the same as those of compound (Ia)

^111In-labeled PAMAM(G3)
mean particle size ([1]; PBS (pH 7.4), 1 mg/mL): 4.20±0.09 nm | zeta potential ([1]; PBS (pH 7.4), 1 mg/mL): 4.56±0.81 mV | physicochemical properties (particle size and zeta potential) of the labeled compound versus the unlabeled compound [1]: also the same

^111In-labeled poly-L-lysine
decomposition in the kidney [2]: easily decomposed in the kidney | radioactivity in high / low molecular weight fraction, kidney homogenate ([2]; PD-10 column): mainly on the low molecular weight fraction side | physicochemical properties (particle size and zeta potential) of the labeled compound versus the unlabeled compound [1]: the same as those of poly-L-lysine

[Cl][Hg][Cl] [mercury chloride, Mercury chloride]
plasma creatinine level ([3]; FIG. 8(A)): increase | plasma urea nitrogen concentration ([3]; FIG. 8(B)): increase | histological section of kidney tissue ([3]; FIG. 8(C)): infiltration and necrosis of inflammatory cells and damaged cells were observed
